This is an account of results in the supplement of paper PMC9112550, “Optimization of the antimicrobial peptide Bac7 by deep mutational scanning” (BMC Biology, 2022).
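Note: peptides expressed intracellularly from a pBAD plasmid library in pooled LB shake-flask culture, induced with 0.3% L-arabinose, DNA abundance read by NGS, three biological replicates, DESeq2 with apeglm shrinkage.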

The series relates to Escherichia coli TOP10. Kind of series: shrunken log2 fold change of peptide-encoding DNA abundance (4.5 h post-induction vs induction); higher = less antimicrobial activity (less host growth inhibition). Particulars: time post-induction: 4.5 h; library: site-saturation at positions 5, 18, 19, 20.
Regarding RRIRVRPPRLPRPRPRPAKWPRP, the “shrunken log2 fold change” value was found to be 0.153.
The figure for RRIRLRPPRLPRPRPRPNCWPRP is 0.388; for RRIRDRPPRLPRPRPRPMCNPRP it is -0.0221.
Under RRIRPRPPRLPRPRPRPFPRPRP stands 0.0474; under RRIRARPPRLPRPRPRPLIPPRP, 0.449.
For RRIRVRPPRLPRPRPRPPDPPRP, the “shrunken log2 fold change” value stood at 0.342.
Under RRIRPRPPRLPRPRPRPRGDPRP stands 1.81.
As for RRIRIRPPRLPRPRPRPPLPPRP, the “shrunken log2 fold change” value was 0.796.
The figure for RRIRERPPRLPRPRPRPEIMPRP is -0.00047; for RRIRLRPPRLPRPRPRPRCYPRP it is 0.0161.
The figure for RRIRSRPPRLPRPRPRPVDTPRP is -0.103.
The figure for RRIRPRPPRLPRPRPRPMIMPRP is -0.0291; for RRIRCRPPRLPRPRPRPQSDPRP it is -0.69; for RRIRMRPPRLPRPRPRPPNYPRP it is 0.0891.
RRIRVRPPRLPRPRPRPNTIPRP: the “shrunken log2 fold change” value is -0.571.
Under RRIRRRPPRLPRPRPRPSEVPRP stands 1.94; under RRIRFRPPRLPRPRPRPEHPPRP, -0.0569.
For the sequence RRIRGRPPRLPRPRPRPWMCPRP, the “shrunken log2 fold change” value was -0.13.
The figure for RRIRSRPPRLPRPRPRPEVPPRP is 0.0326.
The figure for RRIRTRPPRLPRPRPRPEFCPRP is 0.146; for RRIRNRPPRLPRPRPRPALHPRP it is -0.296; for RRIRERPPRLPRPRPRPHYLPRP it is -0.139.
Under RRIRVRPPRLPRPRPRPHFWPRP stands -0.158.
As for RRIRKRPPRLPRPRPRPDKLPRP, the “shrunken log2 fold change” value is 0.367.
As for RRIRQRPPRLPRPRPRPVAAPRP, the “shrunken log2 fold change” value was 0.51.
As to RRIRTRPPRLPRPRPRPMENPRP, the “shrunken log2 fold change” value was -0.011.
The figure for RRIRNRPPRLPRPRPRPAQIPRP is 0.603; for RRIRRRPPRLPRPRPRPKAVPRP it is 0.0693.
For the sequence RRIRGRPPRLPRPRPRPTMSPRP, the “shrunken log2 fold change” value is 0.496.
Under RRIRYRPPRLPRPRPRPCWVPRP stands -0.158; under RRIRNRPPRLPRPRPRPPSKPRP, -0.161.
In the case of RRIRQRPPRLPRPRPRPWENPRP, the “shrunken log2 fold change” value was found to be 0.0728.
In the case of RRIRDRPPRLPRPRPRPKEQPRP, the “shrunken log2 fold change” value was found to be 0.0816.
The figure for RRIRGRPPRLPRPRPRPLVQPRP is 0.802.
As for RRIRERPPRLPRPRPRPKNNPRP, the “shrunken log2 fold change” value is -0.464.
Under RRIRWRPPRLPRPRPRPCHCPRP stands -0.102; under RRIRPRPPRLPRPRPRPQLLPRP, 0.271; under RRIRQRPPRLPRPRPRPNPRPRP, 0.0565.
The figure for RRIRNRPPRLPRPRPRPRDLPRP is 0.186; for RRIRQRPPRLPRPRPRPFCGPRP it is 0.0215; for RRIRDRPPRLPRPRPRPRNCPRP it is -0.152.
The figure for RRIRYRPPRLPRPRPRPGVTPRP is -0.048; for RRIRMRPPRLPRPRPRPIMKPRP it is -0.24.
RRIRFRPPRLPRPRPRPIHQPRP: the “shrunken log2 fold change” value was -0.237.
On to RRIRQRPPRLPRPRPRPADCPRP, for which the “shrunken log2 fold change” value was -0.00699.
Under RRIRHRPPRLPRPRPRPASNPRP stands -0.456.
In the case of RRIRSRPPRLPRPRPRPIYVPRP, the “shrunken log2 fold change” value was -0.612.
Turning to RRIRKRPPRLPRPRPRPYSRPRP, the “shrunken log2 fold change” value was -0.0735.
Regarding RRIRVRPPRLPRPRPRPMAYPRP, the “shrunken log2 fold change” value is -0.012.
Under RRIRNRPPRLPRPRPRPYPRPRP stands 0.0154; under RRIRQRPPRLPRPRPRPRGCPRP, 0.199; under RRIRMRPPRLPRPRPRPEKSPRP, 2.
The figure for RRIRMRPPRLPRPRPRPRVMPRP is 0.832.
Consider RRIRNRPPRLPRPRPRPQWHPRP, for which the “shrunken log2 fold change” value was -0.481.
The figure for RRIRDRPPRLPRPRPRPFDSPRP is -0.0169; for RRIRDRPPRLPRPRPRPCPTPRP it is 0.131; for RRIRYRPPRLPRPRPRPNSAPRP it is -0.805.
The figure for RRIRFRPPRLPRPRPRPLFQPRP is -0.446; for RRIRKRPPRLPRPRPRPRAHPRP it is 0.68.
RRIRTRPPRLPRPRPRPMQIPRP: the “shrunken log2 fold change” value came to 0.08.
Under RRIRERPPRLPRPRPRPCLRPRP stands 0.0836; under RRIRHRPPRLPRPRPRPPSYPRP, -0.266.
For the sequence RRIRVRPPRLPRPRPRPFRYPRP, the “shrunken log2 fold change” value is -0.0399.
The figure for RRIRKRPPRLPRPRPRPWSMPRP is -0.0905.
For RRIRQRPPRLPRPRPRPGVEPRP, the “shrunken log2 fold change” value worked out at 0.0735.
Under RRIRPRPPRLPRPRPRPGWPPRP stands 0.667; under RRIRSRPPRLPRPRPRPTPAPRP, 0.299; under RRIRDRPPRLPRPRPRPSTFPRP, 0.11.
The figure for RRIRIRPPRLPRPRPRPDRHPRP is -0.504.
For the sequence RRIRWRPPRLPRPRPRPVSQPRP, the “shrunken log2 fold change” value amounted to 0.139.
Under RRIRNRPPRLPRPRPRPKIFPRP stands 0.19; under RRIRNRPPRLPRPRPRPVLYPRP, -0.374.
The figure for RRIRFRPPRLPRPRPRPHNIPRP is -0.501; for RRIRSRPPRLPRPRPRPCWCPRP it is 0.0677.
With RRIRFRPPRLPRPRPRPMCSPRP, the “shrunken log2 fold change” value is -0.687.
Regarding RRIRGRPPRLPRPRPRPYMDPRP, the “shrunken log2 fold change” value was -0.0735.
The figure for RRIRSRPPRLPRPRPRPKALPRP is 0.175.
Turning to RRIRDRPPRLPRPRPRPRMIPRP, the “shrunken log2 fold change” value was -0.237.
As to RRIRWRPPRLPRPRPRPDAKPRP, the “shrunken log2 fold change” value was found to be 0.0403.
As for RRIRYRPPRLPRPRPRPVLQPRP, the “shrunken log2 fold change” value was -0.297.
The figure for RRIRLRPPRLPRPRPRPTTIPRP is 0.255; for RRIRARPPRLPRPRPRPTPPPRP it is 0.811; for RRIRPRPPRLPRPRPRPNRFPRP it is -0.0502.
Under RRIRFRPPRLPRPRPRPREAPRP stands 0.115; under RRIRNRPPRLPRPRPRPVFVPRP, -0.123; under RRIRFRPPRLPRPRPRPPNMPRP, -0.0513.
With RRIRNRPPRLPRPRPRPEAHPRP, the “shrunken log2 fold change” value is -0.0208.
Under RRIRDRPPRLPRPRPRPCDEPRP stands -0.00174.
Consider RRIRFRPPRLPRPRPRPTYTPRP, for which the “shrunken log2 fold change” value is -0.719.
On to RRIRCRPPRLPRPRPRPTAYPRP, for which the “shrunken log2 fold change” value is -0.137.
Consider RRIRERPPRLPRPRPRPFGEPRP, for which the “shrunken log2 fold change” value was -0.122.
Regarding RRIRFRPPRLPRPRPRPRWGPRP, the “shrunken log2 fold change” value amounted to 0.143.
Under RRIRSRPPRLPRPRPRPKPSPRP stands 0.263; under RRIRKRPPRLPRPRPRPYRCPRP, -0.12.
Under RRIRQRPPRLPRPRPRPYCFPRP stands -1.
For the sequence RRIRKRPPRLPRPRPRPSSNPRP, the “shrunken log2 fold change” value is -0.0818.
Take RRIRGRPPRLPRPRPRPYTAPRP: the “shrunken log2 fold change” value is -0.455.
Under RRIRQRPPRLPRPRPRPARYPRP stands 0.0932; under RRIRPRPPRLPRPRPRPVWYPRP, -0.219.
RRIRWRPPRLPRPRPRPGPAPRP: the “shrunken log2 fold change” value was found to be 1.65.
Take RRIRPRPPRLPRPRPRPTQSPRP: the “shrunken log2 fold change” value amounted to 0.436.
The figure for RRIRWRPPRLPRPRPRPDHIPRP is -0.0546.
Regarding RRIRPRPPRLPRPRPRPCYDPRP, the “shrunken log2 fold change” value is -0.165.
With RRIRFRPPRLPRPRPRPQHHPRP, the “shrunken log2 fold change” value was -0.659.
Under RRIRLRPPRLPRPRPRPHYSPRP stands -0.246; under RRIRQRPPRLPRPRPRPCFRPRP, -0.155; under RRIRSRPPRLPRPRPRPNMDPRP, -0.184.
Consider RRIRMRPPRLPRPRPRPGNSPRP, for which the “shrunken log2 fold change” value is -0.616.
As for RRIRNRPPRLPRPRPRPECVPRP, the “shrunken log2 fold change” value was -0.127.
Under RRIRQRPPRLPRPRPRPLSMPRP stands -0.262; under RRIRQRPPRLPRPRPRPNSNPRP, -0.648; under RRIRARPPRLPRPRPRPSQQPRP, -0.0191.
Under RRIRTRPPRLPRPRPRPWRCPRP stands -0.00386; under RRIRERPPRLPRPRPRPHKSPRP, -0.0459.
For RRIRQRPPRLPRPRPRPLVGPRP, the “shrunken log2 fold change” value was 0.38.
For the sequence RRIRPRPPRLPRPRPRPEPMPRP, the “shrunken log2 fold change” value came out at 0.542.
For the sequence RRIRNRPPRLPRPRPRPSKIPRP, the “shrunken log2 fold change” value was -0.846.
For the sequence RRIRWRPPRLPRPRPRPKCMPRP, the “shrunken log2 fold change” value was 0.531.
The figure for RRIRVRPPRLPRPRPRPAHFPRP is 0.31; for RRIRGRPPRLPRPRPRPQRNPRP it is 0.473; for RRIRARPPRLPRPRPRPRLPPRP it is 0.667.
The figure for RRIRERPPRLPRPRPRPQFDPRP is -0.111; for RRIRRRPPRLPRPRPRPWNCPRP it is 0.0332.
Under RRIRNRPPRLPRPRPRPSMWPRP stands -0.0524; under RRIRIRPPRLPRPRPRPPFCPRP, -0.256.
